34 variants from the Human Domainome abundance scans (Beltran et al. 2025) can be followed below.

± gives the uncertainty stated by the source.

B1: POU domain, class 4, transcription factor 1, residues 266 to 347; numbered along this chain, Q01851 (parent)
chain: RELEAFAERFKQRRIKLGVTQADVGSALANLKIPGVGSLSQSTICRFESLTLSHNNMIALKPILQAWLEEAEGAQREKMNKP

In this data set the parent is B1. In words: abundance fitness (aPCA) (normalised: wild type 0, dead -1); higher = more abundant; growth selection in yeast, the domain comes from the species named. To be noted: Homo sapiens.
On to RELEAFAERFKQRRIKLGVTQADVGSALANLKIPGVGSLSQSTICRFESLTLCHNNMIALKPILQAWLEEAEGAQREKMNKP [S53C], for which the abundance fitness worked out at 0.004 ± 0.089.
Regarding RELEAFAERFKQRRIKLGVTQADVGSALANLKIPGVGSLSQSTICRFESLTLRHNNMIALKPILQAWLEEAEGAQREKMNKP [S53R], the abundance fitness is -0.139 ± 0.04.
Consider RELEAFAERFKQRRIKLGVTQADVGSALANLKIPGVGSLSQSTICRFESLTLWHNNMIALKPILQAWLEEAEGAQREKMNKP [S53W], for which the abundance fitness is -0.533 ± 0.094.
Take RELEAFAERFKQRRIKLGVTQADVGSALANLKIPGVGSLSQSTICRFESLTLTHNNMIALKPILQAWLEEAEGAQREKMNKP [S53T]: the abundance fitness was -0.174 ± 0.064.
With RELEAFAERFKQRRIKLGVTQADVGSALANLKIPGVGSLSQSTICRFESLTLYHNNMIALKPILQAWLEEAEGAQREKMNKP [S53Y], the abundance fitness was -0.131 ± 0.19.
Regarding RELEAFAERFKQRRIKLGVTQADVGSALANLKIPGVGSLSQSTICRFESLTLPHNNMIALKPILQAWLEEAEGAQREKMNKP [S53P], the abundance fitness came to 0.02 ± 0.055.
RELEAFAERFKQRRIKLGVTQADVGSALANLKIPGVGSLSQSTICRFESLTLNHNNMIALKPILQAWLEEAEGAQREKMNKP [S53N]: the abundance fitness is -0.114 ± 0.1.
With RELEAFAERFKQRRIKLGVTQADVGSALANLKIPGVGSLSQSTICRFESLTLQHNNMIALKPILQAWLEEAEGAQREKMNKP [S53Q], the abundance fitness is -0.013 ± 0.07.
Under RELEAFAERFKQRRIKLGVTQADVGSALANLKIPGVGSLSQSTICRFESLTLVHNNMIALKPILQAWLEEAEGAQREKMNKP [S53V] stands -0.389 ± 0.055.
Consider RELEAFAERFKQRRIKLGVTQADVGSALANLKIPGVGSLSQSTICRFESLTLAHNNMIALKPILQAWLEEAEGAQREKMNKP [S53A], for which the abundance fitness was -0.039 ± 0.043.
Turning to RELEAFAERFKQRRIKLGVTQADVGSALANLKIPGVGSLSQSTICRFESLTLIHNNMIALKPILQAWLEEAEGAQREKMNKP [S53I], the abundance fitness is -0.173 ± 0.31.
As to RELEAFAERFKQRRIKLGVTQADVGSALANLKIPGVGSLSQSTICRFESLTLMHNNMIALKPILQAWLEEAEGAQREKMNKP [S53M], the abundance fitness is -0.419 ± 0.076.
Consider RELEAFAERFKQRRIKLGVTQADVGSALANLKIPGVGSLSQSTICRFESLTLGHNNMIALKPILQAWLEEAEGAQREKMNKP [S53G], for which the abundance fitness was -0.039 ± 0.038.
For the variant RELEAFAERFKQRRIKLGVTQADVGSALANLKIPGVGSLSQSTICRFESLTLDHNNMIALKPILQAWLEEAEGAQREKMNKP [S53D], the abundance fitness is -0.136 ± 0.075.
To RELEAFAERFKQRRIKLGVTQADVGSALANLKIPGVGSLSQSTICRFESLTLLHNNMIALKPILQAWLEEAEGAQREKMNKP [S53L] belongs -0.518 ± 0.094; to RELEAFAERFKQRRIKLGVTQADVGSALANLKIPGVGSLSQSTICRFESLTLKHNNMIALKPILQAWLEEAEGAQREKMNKP [S53K], -0.269 ± 0.073.
Under RELEAFAERFKQRRIKLGVTQADVGSALANLKIPGVGSLSQSTICRFESLTLFHNNMIALKPILQAWLEEAEGAQREKMNKP [S53F] stands -0.903 ± 0.23; under RELEAFAERFKQRRIKLGVTQADVGSALANLKIPGVGSLSQSTICRFESLTLSFNNMIALKPILQAWLEEAEGAQREKMNKP [H54F], -0.02 ± 0.1; under RELEAFAERFKQRRIKLGVTQADVGSALANLKIPGVGSLSQSTICRFESLTLSINNMIALKPILQAWLEEAEGAQREKMNKP [H54I], 0.091 ± 0.1.
In the case of RELEAFAERFKQRRIKLGVTQADVGSALANLKIPGVGSLSQSTICRFESLTLSLNNMIALKPILQAWLEEAEGAQREKMNKP [H54L], the abundance fitness was 0.046 ± 0.04.
Regarding RELEAFAERFKQRRIKLGVTQADVGSALANLKIPGVGSLSQSTICRFESLTLSCNNMIALKPILQAWLEEAEGAQREKMNKP [H54C], the abundance fitness was -0.089 ± 0.059.
RELEAFAERFKQRRIKLGVTQADVGSALANLKIPGVGSLSQSTICRFESLTLSNNNMIALKPILQAWLEEAEGAQREKMNKP [H54N]: the abundance fitness is -0.075 ± 0.084.
To RELEAFAERFKQRRIKLGVTQADVGSALANLKIPGVGSLSQSTICRFESLTLSDNNMIALKPILQAWLEEAEGAQREKMNKP [H54D] belongs -0.039 ± 0.061; to RELEAFAERFKQRRIKLGVTQADVGSALANLKIPGVGSLSQSTICRFESLTLSENNMIALKPILQAWLEEAEGAQREKMNKP [H54E], 0.058 ± 0.047.
RELEAFAERFKQRRIKLGVTQADVGSALANLKIPGVGSLSQSTICRFESLTLSMNNMIALKPILQAWLEEAEGAQREKMNKP [H54M]: the abundance fitness amounted to 0.044 ± 0.052.
RELEAFAERFKQRRIKLGVTQADVGSALANLKIPGVGSLSQSTICRFESLTLSKNNMIALKPILQAWLEEAEGAQREKMNKP [H54K]: the abundance fitness came to 0.007 ± 0.066.
Turning to RELEAFAERFKQRRIKLGVTQADVGSALANLKIPGVGSLSQSTICRFESLTLSANNMIALKPILQAWLEEAEGAQREKMNKP [H54A], the abundance fitness amounted to 0.01 ± 0.038.
For the variant RELEAFAERFKQRRIKLGVTQADVGSALANLKIPGVGSLSQSTICRFESLTTSHNNMIALKPILQAWLEEAEGAQREKMNKP [L52T], the abundance fitness is -0.472 ± 0.064.
Under RELEAFAERFKQRRIKLGVTQADVGSALANLKIPGVGSLSQSTICRFESLTVSHNNMIALKPILQAWLEEAEGAQREKMNKP [L52V] stands -0.588 ± 0.07; under RELEAFAERFKQRRIKLGVTQADVGSALANLKIPGVGSLSQSTICRFESLTSSHNNMIALKPILQAWLEEAEGAQREKMNKP [L52S], -0.557 ± 0.067.
Under RELEAFAERFKQRRIKLGVTQADVGSALANLKIPGVGSLSQSTICRFESLTWSHNNMIALKPILQAWLEEAEGAQREKMNKP [L52W] stands -0.546 ± 0.071; under RELEAFAERFKQRRIKLGVTQADVGSALANLKIPGVGSLSQSTICRFESLTYSHNNMIALKPILQAWLEEAEGAQREKMNKP [L52Y], -0.701 ± 0.26; under RELEAFAERFKQRRIKLGVTQADVGSALANLKIPGVGSLSQSTICRFESLTKSHNNMIALKPILQAWLEEAEGAQREKMNKP [L52K], -1.28 ± 0.27.
Turning to RELEAFAERFKQRRIKLGVTQADVGSALANLKIPGVGSLSQSTICRFESLTRSHNNMIALKPILQAWLEEAEGAQREKMNKP [L52R], the abundance fitness is -0.986 ± 0.084.
